Here are results for 13 proteins from patent US20250027068.

First the molecules themselves.
B1: PRT-564 (protein)
chain: MANQEIRYSEATPSHITSVWTKGVTPPTQFIQNEDVLHAPYIANQGWYDITKTFNGKDDLLCGAATAGNMLHWWFDQNKTQIENYLKKHPEKQKINFNGEQMFDVKEAIDTKDSQTDSALFSYFKDKAFPYLSTKHLGVFPDHVIDMFINGYRLSLTNHGPTPVKRQTKDPRGGIFDAVFTRGDQSKLLTSRHDFKEKTLNEISQLIKQELTEGKALGLSHTYANVRINHVINLWGADFNAEGNLEAIYVTDSDSNASIGMKKYYVGVNAAGKVAISAKEIEGDNIGAQVLGLFTLSTGQDIWQQTNLEHHHHHH
B2: PRT-436 (protein)
chain: MSQTEDSESLQRLRDIEDFQAEKKDQNVVYTKWLDGVDVKDHDFRKIVDGNIAYYATPLLNGRGFYDINKDFNRDSDKCAAAVAANMFHYWLDRNRDNVDRFLRQNPEKHGIIELPDGQLKLSDFLNTYESDDGYRDKSKLFDFISNNFNGPVWTDKLLDNYINGYAYNYKYGRTIEDPTKNTSKINFFKEVFNEKILTNNHSIRNQNEFSVLLSEALYTGKAIGLSYGPAGLRHSLGHIISVWGADLDADGNVVAIYVTDSDDKKLTIGDERVGLKRYKISTDDEGRLRLTAYEETHNTGGQIRGLWTLDTGKQAWADYFDKTEQTGTDQAEQ
B3: PRT-694 (protein)
chain: MTITSVWTKGVTPPTPEDFRYNNEDVLHAPYVANQGWYDITKTFDGKDNLLCGAATAGNMLHWWFDQNKEEIERYLKKYPEKQKIIFNNQELFDVRAAINTKDSQTNSKLFNYFRDKAFPNLSARQLGVMPDLVLDMFINGYYLNLGKTQSTDVNRPYQDKDKRGGIFDAVFNRGDQTTLLTARHDLKNKGLNEISDLIKQELSSGKALALSHTYANVRINHVINLWGADFDAEGNLIAIYVTDSDANSNIGMKKYKVGVNANGKVAISAKKIEGDNIGAQVLGLFTLSTGQDIWQKLSLEHHHHHH
B4: PRT-641 (protein)
chain: MQITSVWTKGVTPLTPEQFRYNNEDVIHAPYLAHQGWYDITKTMNGKDDLLCGAATAGNMLHWWFDQNKTEIEAYLSKHPEKQKIIFNNQELFDLKAAIDTKDSQTNSQLFNYFRDKAFPNLSARQRGVMPDLVLDMFINGYYLNVFKTQSTDVNRPYQDKDKRGGIFDAVFTRGDQTTLLTARHDLKNKGLNDISTIIKQELTEGRALALSHTYANVSISHVINLWGADFNAEGNLEAIYVTDSDARENIGMKKYFVGINAHGHVAISAKKIEGENIGAQVLGLFTLSSGKDIWQKLSLEHHHHHH
B5: PRT-377 (protein)
chain: MVTSVWTKGVTPPTNFTYGEDVLHAPYVANQGWYDITKTFNGKDDLLCGAATAGNMLHWWFDQNKEQIENYLKKHPEKQKINFNGEQMFDVKEAIDTKDSQLDSKLFEYFLEKAFPYLSTKHLGVFPDHVIDMFINGYRLSLTNHGPTPVKRGSKDPRGGIFDAVFTRGDQSKLLTNRHDFKEKTLKEISDLIKQELTEGKALGISHTYANVRINHVINLWGADFDAEGNLEAIYVTDSDSNASIGMKKYFVGVNSNGKVAISAKEIEEDNIGAQVLGLFTLSTGQDIWNQTN
B6: PRT-690 (protein)
chain: MQITSVWTKGVTPPTPEQFRYNNEDVIHAPYLANQGWYDITKTFNGKDNLLCGAATAGNMLHWWFDQNKTEIEAYLSKYPEKQKIIFNNQELFDLRAAINTKDSQTNSQLFNYFRDKAFPNLSARQLGVMPDLVLDMFINGYYLNVFKTQSTDVNRPYQDKDKRGGIFDAVFNRGDQTTLLTARHDLKNKTLNDISTLIKQELSSGKALALSHTYANVSISHVINLWGADFNAEGNLEAIYVTDSDANSNIGMKKYKVGVNAHGKVAISAKKIEGENIGAQVLGLFTLSSGKDIWQKLSLEHHHHHH
B7: PRT-684 (protein)
chain: MQITSVWTKGVTPLTPEQFTNNNEDVIHAPYLANQGWYDITKTFNGKDNLLCGAATAGNMLHWWFDQNKEEIEAYLKKHPEKQKIIFNNQELFDLKKAIDTKDSQTNSALFNYFRDKAFPNLSARQLGVMPDLVLDMFINGYYLNVFKTQSTDVNRPYQTKDKRGGIFDAVFTRGDQTTLLTARHDLKNKGLNEISDIIKQELTEGKALALSHTYANVSISHVINLWGADFNAEGNLIAIYVTDSDANASIGMKKYFVGVNSHGKVAISAKKIEGENIGAQVLGLFTLSSGQDIWQKLSLEHHHHHH
B8: PRT-603 (protein)
chain: MQITTVWTKGVTPLTPEQFRYNNEDVIHAPYLAHQGWYDITKAFDGKDNLLCGAATAGNMLHWWFDQNKTEIEAYLSKHPEKQKIIFNNQELFDLKAAIDTKDSQTNSQLFNYFRDKAFPNLSARQLGVMPDLVLDMFINGYYLNVFKTQSTDVNRPYQDKDKRGGIFDAVFTRGDQTTLLTARHDLKNGGLNDISTIIKQELQSGRALALSHTYANVSISHVINLWGADFNAEGNLEAIYVTDSDANASIGMKKYFVGINAHGHVAISAKKIEGENIGAQVLGLFTLSSGKDIWQKLSLEHHHHHH
B9: PRT-373 (protein)
chain: MSQTEDSESLQRLRDIEDFQAEKEKQNVVYTKWLDGVDVKDHDFRKIVDGNSAYYATPLLNGRGWYDINKDFNRDNDKCAAAVAANMFHYWLDRNRDNVDRFLRQNPEKHGIIELPDGQLKLSDFLNTYESDDGYRDKSKLFDFISENFNGPVWTDKLLDNYINGYAYNSKYGRTIEDSTKNTSKINFFKEVFNEKILTNNHSIRNQNEFSVLLIEALYTGKAIGLSYGPAGLRHGLGHIISVWGADLDADGNVVAIYVTDSDDKKLTIGDERVGLKRYKISTDDEGRLRLTAYEETHNTGGQVRGLWTLDTGKQAWADYFDKTEQTGTDQAEQ
B10: PRT-438 (protein)
chain: MSQTEDSESLQRLRDIEDFQAEKKKQNVVYTKWLDGVDVKDHDFRKIVDGNIAYYATPLLNGRGLYDINKDFNRDSDKCAAAVAANMFHYWLDRNRDNVDRFLRQNPEKHGIIELPDGQLKLSDFLNTYESDDGYRDKSKLFDFISNNFNGPVWTDKLLDNYINGYAYNYKYGRTIEDPTKNTSKINFFKEVFNEKILTNNHSIRNQNEFSVLLSEALYTGKAIGLSYGPAGLRHSLGHIISVWGADLDADGNVVAIYVTDSDDKKLTIGDERVGLKRYKISTDDEGRLRLTAYEETHNTGGQIRGLWTLDTGKQAWADYFDKTEQTGTDQAEQ
B11: PRT-432 (protein)
chain: MSQTEDSESLQRLRDIEDFQAEKKKQNVVYTKWLDGVDVKDHDFRKIVDGNIAYYATPLLNGRGFYDINKDFNRDSDKCAAAVAANMFHYWLDRNRDNVDRFLRQNPEKHGIIELPDGQLKLSDFLNTYESDDGYRDKSKLFDFISNNFNGPVWTDKLLDNYINGYAYNSKYGRTIEDPTKNTSKINFFKEVFNEKILTNNHSIRNQNEFSVLLSEALYTGKAIGLSYGPAGLRHSLGHIISVWGADLDADGNVVAIYVTDSDDKKLTIGDERVGLKRYKISTDDEGRLRLTAYEETHNTGGQIRGLWTLDTGKQAWADYFDKTEQTGTDQAEQ
B12: PRT-431 (protein)
chain: MSQTEDSESLQRLRDIEDFQAEKKKQNVVYTKWLDGVDVKDHDFRKIVDGNIAYYATPLLNGRGFYDINKDFNRDSDKCAAAVAANMFHYWLDRNRDNVDRFLRQNPEKHGIIELPDGQLKLSDFLNTYESDDGYRDKSKLFDFISENFNGPVWTDKLLDNYINGYAYNYKYGRTIEDPTKNTSKINFFKEVFNEKILTNNHSIRNQNEFSVLLSEALYTGKAIGLSYGPAGLRHSLGHIISVWGADLDADGNVVAIYVTDSDDKKLTIGDERVGLKRYKISTDDEGRLRLTAYEETHNTGGQIRGLWTLDTGKQAWADYFDKTEQTGTDQAEQ
B13: PRT-430 (protein)
chain: MSQTEDSESLQRLRDIEDFQAEKKKQNVVYTKWLDGVDVKDHDFRKIVDGNSAYYATPLLNGRGFYDINKDFNRDSDKCAAAVAANMFHYWLDRNRDNVDRFLRQNPEKHGIIELPDGQLKLSDFLNTYESDDGYRDKSKLFDFISNNFNGPVWTDKLLDNYINGYAYNYKYGRTIEDPTKNTSKINFFKEVFNEKILTNNHSIRNQNEFSVLLSEALYTGKAIGLSYGPAGLRHSLGHIISVWGADLDADGNVVAIYVTDSDDKKLTIGDERVGLKRYKISTDDEGRLRLTAYEETHNTGGQIRGLWTLDTGKQAWADYFDKTEQTGTDQAEQ

In this data set the target is pooled human IgG (human IgG1, 2, 3 and 4).
On to B1, for which the Enzyme Activity Endpoint Assay (purified): Fab′2 came to 651 ng/µL, the Enzyme Activity Endpoint Assay (purified): Fc was 351 ng/µL, the Enzyme Activity Endpoint Assay (purified): IgG was 0 ng/µL and the Enzyme Activity Endpoint Assay (purified): scIgG turned out to be 0 ng/µL.

B2 returned an Enzyme Activity Endpoint Assay (purified): Fab'2 of 445 ng/µL, an Enzyme Activity Endpoint Assay (purified): Fc of 305 ng/µL, an Enzyme Activity Endpoint Assay (purified): IgG of 0 ng/µL and an Enzyme Activity Endpoint Assay (purified): scIgG of 379 ng/µL.

With B3, the Enzyme Activity Endpoint Assay (purified): Fab′2 turned out to be 541 ng/µL, the Enzyme Activity Endpoint Assay (purified): Fc was 0 ng/µL, the Enzyme Activity Endpoint Assay (purified): IgG came to 1030 ng/µL and the Enzyme Activity Endpoint Assay (purified): scIgG is 15 ng/µL.

As to B4, the Enzyme Activity Endpoint Assay (purified): Fab′2 stood at 975 ng/µL, the Enzyme Activity Endpoint Assay (purified): Fc turned out to be 336 ng/µL, the Enzyme Activity Endpoint Assay (purified): IgG is 0 ng/µL and the Enzyme Activity Endpoint Assay (purified): scIgG amounted to 0 ng/µL.

B5 gave an Enzyme Activity Endpoint Assay (purified): Fab′2 of 572 ng/µL, an Enzyme Activity Endpoint Assay (purified): Fc of 348 ng/µL, an Enzyme Activity Endpoint Assay (purified): IgG of 0 ng/µL and an Enzyme Activity Endpoint Assay (purified): scIgG of 242 ng/µL.

The protein B6 returned an Enzyme Activity Endpoint Assay (purified): Fab′2 of 966 ng/µL, an Enzyme Activity Endpoint Assay (purified): Fc of 482 ng/µL, an Enzyme Activity Endpoint Assay (purified): IgG of 0 ng/µL and an Enzyme Activity Endpoint Assay (purified): scIgG of 0 ng/µL.

B7: the Enzyme Activity Endpoint Assay (purified): Fab′2 is 1060 ng/µL, the Enzyme Activity Endpoint Assay (purified): Fc was found to be 542 ng/µL, the Enzyme Activity Endpoint Assay (purified): IgG turned out to be 0 ng/µL and the Enzyme Activity Endpoint Assay (purified): scIgG was determined as 0 ng/µL.

Protein B8 returned an Enzyme Activity Endpoint Assay (purified): Fab′2 of 965 ng/µL, an Enzyme Activity Endpoint Assay (purified): Fc of 486 ng/µL, an Enzyme Activity Endpoint Assay (purified): IgG of 0 ng/µL and an Enzyme Activity Endpoint Assay (purified): scIgG of 0 ng/µL.

Regarding B9, the Enzyme Activity Endpoint Assay (purified): Fab′2 is 392 ng/µL, the Enzyme Activity Endpoint Assay (purified): Fc is 295 ng/µL, the Enzyme Activity Endpoint Assay (purified): IgG is 38 ng/µL and the Enzyme Activity Endpoint Assay (purified): scIgG turned out to be 281 ng/µL.

B10: the Enzyme Activity Endpoint Assay (purified): Fab'2 is 578 ng/µL, the Enzyme Activity Endpoint Assay (purified): Fc was found to be 320 ng/µL, the Enzyme Activity Endpoint Assay (purified): IgG is 0 ng/µL and the Enzyme Activity Endpoint Assay (purified): scIgG was found to be 249 ng/µL.

For B11, the Enzyme Activity Endpoint Assay (purified): Fab′2 worked out at 462 ng/µL, the Enzyme Activity Endpoint Assay (purified): Fc was found to be 305 ng/µL, the Enzyme Activity Endpoint Assay (purified): IgG was found to be 0 ng/µL and the Enzyme Activity Endpoint Assay (purified): scIgG was determined as 385 ng/µL.

B12 gave an Enzyme Activity Endpoint Assay (purified): Fab′2 of 521 ng/µL, an Enzyme Activity Endpoint Assay (purified): Fc of 310 ng/µL, an Enzyme Activity Endpoint Assay (purified): IgG of 0 ng/µL and an Enzyme Activity Endpoint Assay (purified): scIgG of 230 ng/µL.

Turning to B13, the Enzyme Activity Endpoint Assay (purified): Fab′2 came out at 492 ng/µL, the Enzyme Activity Endpoint Assay (purified): Fc came to 330 ng/µL, the Enzyme Activity Endpoint Assay (purified): IgG was found to be 0 ng/µL and the Enzyme Activity Endpoint Assay (purified): scIgG worked out at 324 ng/µL.
